From US9493537

Target: melanocortin-1 (MC1) receptor on B16/F1 murine melanoma cells (mouse (B16/F1 murine melanoma cells)) (UniProt Q01727)
Assay: cell-based or functional assay

Chain of melanocortin-1 (MC1) receptor on B16/F1 murine melanoma cells (mouse (B16/F1 murine melanoma cells)) (Q01727 whole entry): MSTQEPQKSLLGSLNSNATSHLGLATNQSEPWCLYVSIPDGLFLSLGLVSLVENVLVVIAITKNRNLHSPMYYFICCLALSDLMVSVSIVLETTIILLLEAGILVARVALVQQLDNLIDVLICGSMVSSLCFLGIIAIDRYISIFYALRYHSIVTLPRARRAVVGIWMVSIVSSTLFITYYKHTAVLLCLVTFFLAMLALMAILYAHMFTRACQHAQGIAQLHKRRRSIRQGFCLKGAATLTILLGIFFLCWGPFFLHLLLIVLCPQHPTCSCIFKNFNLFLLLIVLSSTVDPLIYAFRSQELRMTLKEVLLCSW

Question: 111In-DOTA-GENle-CycMSHhex (peptide) was tested. Which tumor uptake in B16/F1 melanoma-bearing C57 mice at 2 h blocked by co-injection of non-radioactive NDP-MSH did it give?
Answer: 95.6%

Question: How did the tumor uptake in B16/F1 melanoma-bearing C57 mice blocked by 10 µg (6.07 nmol) of non-radiolabeled NDP-MSH turn out when 111In-DOTA-GGNle-CycMSHhex (peptide) was run?
Answer: 98%
